Laboratory results: patent publication US20240189352A1
One block for each binder: values may come before it.

Target: RAC2^P29L peptide … presented by HLA-A2 (peptide-loaded T2 cells) (human)
Assay: cell-based or functional assay

IFNγ production by TCR-transduced T cells (relative): 100%
B1: RAC2-T002 TCR (TCR)
TCR alpha: AQSVTQLGSHVSVSEGALVLLRCNYSSSVPPYLFWYVQYPNQGLQLLLKYTTGATLVKGINGFEAEFKKSETSFHLTKPSAHMSDAAEYFCAVGANNLFFGTGTRLTVIPY
TCR beta: EPEVTQTPSHQVTQMGQEVILRCVPISNHLYFYWYRQILGQKVEFLVSFYNNEISEKSEIFDDQFSVERPDGSNFTLKIRSTKLEDSAMYFCASSEWRGSSYNEQFFGPGTRLTVL

IFNγ production by TCR-transduced T cells (relative): 100%
B2: RAC2-T001 TCR (TCR)
TCR alpha: GENVEQHPSTLSVQEGDSAVIKCTYSDSASNYFPWYKQELGKGPQLIIDIRSNVGEKKDQRIAVTLNKTAKHFSLHITETQPEDSAVYFCAASMGNAGNMLTFGGGTRLMVKPH
TCR beta: EPEVTQTPSHQVTQMGQEVILRCVPISNHLYFYWYRQILGQKVEFLVSFYNNEISEKSEIFDDQFSVERPDGSNFTLKIRSTKLEDSAMYFCASSETSGASYEQYFGPGTRLTVT
